Assay results as given in paper PMC3312455 (2009).

Molecular target: T1, VEGFR2/KDR ECD (Homo sapiens, UniProt P35968)
T1 chain: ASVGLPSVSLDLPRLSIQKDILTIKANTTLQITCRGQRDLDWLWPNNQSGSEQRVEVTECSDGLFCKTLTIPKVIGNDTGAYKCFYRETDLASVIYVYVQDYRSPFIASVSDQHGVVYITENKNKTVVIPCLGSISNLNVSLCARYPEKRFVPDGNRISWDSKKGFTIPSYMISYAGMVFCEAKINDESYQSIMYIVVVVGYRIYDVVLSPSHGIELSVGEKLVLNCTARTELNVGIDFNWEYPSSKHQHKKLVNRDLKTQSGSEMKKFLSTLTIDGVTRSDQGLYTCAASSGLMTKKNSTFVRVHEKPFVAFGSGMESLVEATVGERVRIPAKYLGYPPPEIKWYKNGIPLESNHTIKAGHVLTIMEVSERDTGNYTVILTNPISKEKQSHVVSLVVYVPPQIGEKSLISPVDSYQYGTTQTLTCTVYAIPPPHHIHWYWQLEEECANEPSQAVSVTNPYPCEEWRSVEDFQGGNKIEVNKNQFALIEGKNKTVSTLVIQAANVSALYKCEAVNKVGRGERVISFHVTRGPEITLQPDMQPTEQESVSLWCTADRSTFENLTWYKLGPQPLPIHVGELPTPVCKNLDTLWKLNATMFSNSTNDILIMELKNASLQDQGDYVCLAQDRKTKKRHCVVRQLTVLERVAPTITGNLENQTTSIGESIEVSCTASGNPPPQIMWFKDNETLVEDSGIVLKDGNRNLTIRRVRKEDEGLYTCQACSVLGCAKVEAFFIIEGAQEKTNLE
Assay: SPR

B1: HIV-Tat (protein)
chain: MEPVDPRLEPWKHPGSQPKTACTNCYCKKCCFHCQVCFITKALGISYGRKKRRQRRRAPQGSQTHQVSLSKQPTSQSRGDPTGPKE
Kd: 70 pM

B2: VEGF-A165 (protein)
chain: MTDRQTDTAPSPSYHLLPGRRRTVDAAASRGQGPEPAPGGGVEGVGARGVALKLFVQLLGCSRFGGAVVRAGEAEPSGAARSASSGREEPQPEEGEEEEEKEEERGPQWRLGARKPGSWTGEAAVCADSAPAARAPQALARASGRGGRVARRGAEESGPPHSPSRRGSASRAGPGRASETMNFLLSWVHWSLALLLYLHHAKWSQAAPMAEGGGQNHHEVVKFMDVYQRSYCHPIETLVDIFQEYPDEIEYIFKPSCVPLMRCGGCCNDEGLECVPTEESNITMQIMRIKPHQGQHIGEMSFLQHNKCECRPKKDRARQEKKSVRGKGKGQKRKRKKSRYKSWSVPCGPCSERRKHLFVQDPQTCKCSCKNTDSRCKARQLELNERTCRCDKPRR
Kd: 41 pM
